The numbers were not newly measured in publication PMC6310256, which cites them from elsewhere.

This data set concerns the target complement C5 (human, recombinant) (UniProt P01031). Description: SPR (Biacore), as reported in ref 17. To be noted: cited from earlier work.
Sequence of UniProt P01031 (P01031 whole entry): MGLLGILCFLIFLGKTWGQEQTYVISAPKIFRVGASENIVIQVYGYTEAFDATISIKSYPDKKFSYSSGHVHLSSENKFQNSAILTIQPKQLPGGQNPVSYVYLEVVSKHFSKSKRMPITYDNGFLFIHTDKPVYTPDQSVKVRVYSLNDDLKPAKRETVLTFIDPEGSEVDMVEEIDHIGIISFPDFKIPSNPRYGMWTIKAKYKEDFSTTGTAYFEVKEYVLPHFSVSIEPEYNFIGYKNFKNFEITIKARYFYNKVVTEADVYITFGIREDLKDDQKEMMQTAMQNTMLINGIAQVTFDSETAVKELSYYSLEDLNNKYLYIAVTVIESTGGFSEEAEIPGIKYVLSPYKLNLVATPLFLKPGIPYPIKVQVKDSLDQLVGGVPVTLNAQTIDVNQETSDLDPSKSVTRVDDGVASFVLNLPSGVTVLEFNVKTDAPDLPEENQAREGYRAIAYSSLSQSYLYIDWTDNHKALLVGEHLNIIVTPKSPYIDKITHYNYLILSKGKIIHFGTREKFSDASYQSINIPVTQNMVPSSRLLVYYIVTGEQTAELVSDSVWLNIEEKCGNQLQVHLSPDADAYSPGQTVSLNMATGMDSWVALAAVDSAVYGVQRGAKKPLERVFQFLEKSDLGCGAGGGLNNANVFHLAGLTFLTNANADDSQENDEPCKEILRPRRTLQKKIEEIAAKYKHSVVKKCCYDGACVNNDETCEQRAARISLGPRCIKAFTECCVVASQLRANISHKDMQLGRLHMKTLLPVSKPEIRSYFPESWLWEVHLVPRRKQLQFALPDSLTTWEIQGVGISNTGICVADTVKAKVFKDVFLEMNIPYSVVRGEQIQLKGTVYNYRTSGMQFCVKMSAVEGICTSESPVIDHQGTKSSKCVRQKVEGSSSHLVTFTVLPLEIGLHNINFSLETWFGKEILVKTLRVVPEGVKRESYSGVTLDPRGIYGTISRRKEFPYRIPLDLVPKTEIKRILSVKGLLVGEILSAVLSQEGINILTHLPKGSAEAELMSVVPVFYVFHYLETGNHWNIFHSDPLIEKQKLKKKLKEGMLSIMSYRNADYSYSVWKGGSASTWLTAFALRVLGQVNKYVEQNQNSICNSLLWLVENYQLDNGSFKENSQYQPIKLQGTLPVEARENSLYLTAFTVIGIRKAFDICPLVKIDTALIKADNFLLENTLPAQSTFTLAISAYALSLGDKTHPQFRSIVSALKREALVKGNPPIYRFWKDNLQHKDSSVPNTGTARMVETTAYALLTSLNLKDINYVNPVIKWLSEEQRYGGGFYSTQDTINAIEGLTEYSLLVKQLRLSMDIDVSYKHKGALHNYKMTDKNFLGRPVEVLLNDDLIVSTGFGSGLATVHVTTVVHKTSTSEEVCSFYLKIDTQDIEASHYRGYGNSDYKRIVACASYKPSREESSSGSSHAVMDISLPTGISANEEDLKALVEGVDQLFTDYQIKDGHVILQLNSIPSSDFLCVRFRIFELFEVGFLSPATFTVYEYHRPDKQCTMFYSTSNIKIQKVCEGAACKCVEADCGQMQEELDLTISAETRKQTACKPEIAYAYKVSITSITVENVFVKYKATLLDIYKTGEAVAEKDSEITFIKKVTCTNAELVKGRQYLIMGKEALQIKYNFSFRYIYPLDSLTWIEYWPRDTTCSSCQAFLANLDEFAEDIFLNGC

On to “SKY59 (crovalimab, RO7112689) Includes am1-am6 and pm1-pm3 (pm3 is light chain F92K, Kabat), plus charge, deimmunization and Fc mutations that are not listed.”, for which, for the setting “pH 5.8”, the kd was 0.0145 s⁻¹. Under “pH 7.4”, the KD (as a rule, the free concentration of one partner at which half of the binding sites on the other are occupied at equilibrium, for simple one-to-one binding) is 152 pM and the ka was 1.44e+06 M⁻¹ s⁻¹.
